Measured values as given in paper PMC3654831 (Cell reports, 2012).
Positions count from the first letter of the chain named. In names and notes the source's numbering stands. Several values for one entry are separate records, joined by “and”; a condition that tells them apart may be missing. Identical values can stand only once.

T1: polyhistidine-tagged Get5-UBL-C (S. cerevisiae)
T1 sequence (Q12285 whole entry, looked up): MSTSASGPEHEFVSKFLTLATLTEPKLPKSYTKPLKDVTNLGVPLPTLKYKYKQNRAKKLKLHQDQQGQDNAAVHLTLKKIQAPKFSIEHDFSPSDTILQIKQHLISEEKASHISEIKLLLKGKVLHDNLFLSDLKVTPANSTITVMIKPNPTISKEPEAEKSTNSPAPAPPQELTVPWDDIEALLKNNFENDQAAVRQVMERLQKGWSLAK

T2: Get5 ubiquitin-like domain (Get5-UBL), wild type (S. cerevisiae, UniProt Q12285 74-151)
T2 sequence: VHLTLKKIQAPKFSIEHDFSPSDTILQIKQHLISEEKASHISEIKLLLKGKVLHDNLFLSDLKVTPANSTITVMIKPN

T3: polyhistidine-tagged Get5-UBL, wild type (S. cerevisiae, UniProt Q12285 74-151)
T3 sequence: T2 sequence

B1: Sgt2 N-terminal homodimerization domain (Sgt2-N), wild type (domain or fragment, S. cerevisiae)
chain: SASKEEIAALIVNYFSSIVEKKEISEDGADSLNVAMDCISEAFGFEREAVSGILGKSEFKGQHLADILNSA
B2: Sgt2-N D28A (domain or fragment, S. cerevisiae)
chain: B1 chain with D27A
B3: Sgt2-N D31A (domain or fragment, S. cerevisiae)
chain: B1 chain with D30A
B4: Sgt2-N C39S (domain or fragment, S. cerevisiae)
chain: B1 chain with C38S
B5: Sgt2-N C39V (domain or fragment, S. cerevisiae)
chain: B1 chain with C38V
B6: Sgt2-N V35A (domain or fragment, S. cerevisiae)
chain: B1 chain with V34A
B7: Get5-UBL L120A (domain or fragment, S. cerevisiae)
chain: T2 sequence with L47A

Key:
[1] = target: T1, polyhistidine-tagged Get5-UBL-C (S. cerevisiae); test: SPR
[2] = target: T2, Get5 ubiquitin-like domain (Get5-UBL), …; test: NMR exchange spectroscopy
[3] = target: T3, polyhistidine-tagged Get5-UBL, wild type; test: SPR
[4] = target: T2, Get5 ubiquitin-like domain (Get5-UBL), …; test: NMR exchange spectroscopy; remark: listed apart in the source
solution NMR structure = target: the molecule itself; test: solution NMR structure
[5] = target: T2, Get5 ubiquitin-like domain (Get5-UBL), …; test: ITC
[6] = target: B1; test: ITC

Question: Which results are given for B1?
Answer: Kd [1]: 0.749 µM; kon [1]: 1.06e+07 M⁻¹ s⁻¹; kon [2]: ~2e+08 M⁻¹ s⁻¹; Kd [3]: 3.78 µM; koff [4]: 7.5 s⁻¹ and 5.7 s⁻¹; stoichiometry N (solution NMR structure): 2

Question: Does B2 bind [3]?
Answer: binds

Question: Does B3 bind [3]?
Answer: binds

Question: How did the “fold lower affinity than wild type” value [5] turn out when B4 was run?
Answer: ~700 fold

Question: Which “fold lower affinity than wild type” value [5] does the source give for B5 here?
Answer: 100 fold

Question: How did the “fold lower affinity than wild type” value [5] turn out when B6 was run?
Answer: > 100 fold

Question: With B7 as the binder, how does the “fold lower affinity than wild type” value [6] read?
Answer: 1000 fold
